Consider four molecules from US8846873B2, “Antibodies directed to GPNMB and uses thereof” (Celldex Therapeutics, Inc., priority 2004, dated 2014).

The target of experiment [1] is T1, GPNMB (Homo sapiens, UniProt Q14956).
T1 construct: made in house; host or cells: HEK 293
T1 sequence (Q14956 23-492): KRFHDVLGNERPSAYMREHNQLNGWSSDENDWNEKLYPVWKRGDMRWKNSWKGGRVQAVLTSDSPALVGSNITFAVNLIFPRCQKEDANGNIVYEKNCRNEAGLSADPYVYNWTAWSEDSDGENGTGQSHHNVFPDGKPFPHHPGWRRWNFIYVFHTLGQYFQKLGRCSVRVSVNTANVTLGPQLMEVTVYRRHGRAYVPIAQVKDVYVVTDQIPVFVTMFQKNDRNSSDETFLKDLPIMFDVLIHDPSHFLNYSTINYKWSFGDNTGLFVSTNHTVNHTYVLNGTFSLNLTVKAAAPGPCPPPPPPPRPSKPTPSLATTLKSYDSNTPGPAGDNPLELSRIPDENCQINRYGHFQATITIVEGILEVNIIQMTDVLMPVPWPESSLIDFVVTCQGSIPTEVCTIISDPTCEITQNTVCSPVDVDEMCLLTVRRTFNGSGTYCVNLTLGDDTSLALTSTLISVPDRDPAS
Description: ELISA of hybridoma supernatants for binding to GPNMB. Here is the method: After 14 days of culture, hybridoma supernatants were screened for GPNMB specific monoclonal antibodies. In the Primary screen, the ELISA plates (Fisher, Cat. No. 12-565-136) were coated with 50 μL/well of GPNMB (1 μg/mL) in Coating Buffer (0.1 M Carbonate Buffer, pH 9.6, NaHCO3 8.4 g/L), then incubated at 4° C. overnight. After incubation, the plates were washed with Washing Buffer (0.05% Tween 20 in PBS) three times. 200 μL/well Blocking Buffer (0.5% BSA, 0.1% Tween 20, 0.01% Thimerosal in 1×PBS) were added and the plates were incubated at room temperature for 1 h. After incubation, the plates were washed with Washing Buffer three times. Aliquots (50 μL/well) of hybridoma supernatants and positive and negative controls were added, and the plates were incubated at room temperature for 2 h. The positive control used throughout was serum from the relevant GPNMB immunized XenoMouse® mouse and the negative control was serum from the KLH-immunized relevant strain of XenoMouse® mouse. After incubation, the plates were washed three times with Washing Buffer. 100 μL/well of detection antibody goat anti-huIgGfc-HRP (Caltag, Cat. No. H10507, using concentration was 1:2000 dilution) was added and the plates were incubated at room temperature for 1 hour. After incubation, the plates were washed three times with Washing Buffer. 100 μl/well of TMB (BioFX Lab. Cat. No. TMSK-0100-01) was added, and the plates were allowed to develop for about 10 minutes (until negative control wells barely started to show color). 50 μl/well stop solution (TMB Stop Solution (BioFX Lab. Cat. No. STPR-0100-01) was then added and the plates were read on an ELISA plate reader at a wavelength of 450 nm.
Hybridoma supernatants were screened for binding to GPNMB by ELISA as described above in Example 2.
(An ELISA detects its analyte on a solid surface through an enzyme-linked reagent.)

Experiment [2] deals with T1, GPNMB. Description: BiaCore 2000 biosensor binding of hybridoma supernatant mAb to GPNMB. The settings on record: mAb captured on protein A, GPNMB 880 nM, 1:1 kinetic model. Here is the method: Certain Hybridoma cell supernatants (29) were analyzed for binding to GPNMB by BiaCore® 2000 biosensor equipped with a research-grade CMS sensor chip. A 1:25 dilution of cell supernatant was passed over a protein A surface for 5 min followed by washing the surface for 10 mins. Subsequently, GPNMB was injected for 90 sec. over the surface at a concentration of 880 nM followed by dissociation. Double-referenced binding data were obtained by subtracting the signal from a control flow cell and subtracting the baseline drift of a buffer injected just prior to the antigen injection. GPNMB binding ddata for each mAb was normalized for the amount of mAb captured on each surface. Normalized, drift corrected responses were also measured. The sensorgrams were fit to a simple 1:1 kinetic model.
(Surface plasmon resonance follows binding to a sensor surface in real time, without labels.)

In experiment [3] the test system is TK10 cells. The experiment can be described thus: FACS anti-GPNMB staining. It is filed as binding, human. The settings on record: primary antibody 1 μg/mL.
Experiment [4] concerns the target T1, GPNMB. Description: Binning of antibodies (Luminex competitive binding). The settings on record: three bins of six anti-GPNMB antibodies. On the procedure: Certain antibodies, described herein were binned in accordance with the protocol described in U.S. Patent Application Publication No. 20030157730. MxhIgG conjugated beads are prepared for coupling to primary antibody. The volume of supernatant needed is calculated using the following formula: (n+10)×50 μL (where n=total number of samples on plate). Where the concentration is known, 0.5 μg/mL is used. Bead stock is gently vortexed, then diluted in supernatant to a concentration of 2500 of each bead per well or 0.5×10^5/mL and incubated on a shaker in the dark at RT overnight, or 2 hours if at a known concentration of […]. Following aspiration, 50 μL of each bead is added to each well of filter plate, then washed once by adding 100 μL/well wash buffer and aspirating. Antigen and controls are added to filter plate 50 μL/well then covered and allowed to incubate in the dark for 1 hour on shaker. Following a wash step, a secondary unknown antibody is added at 50 μL/well using the same dilution (or concentration if known) as is used for the primary antibody. The plates are then incubated in the dark for 2 hours at RT on shaker followed by a wash step. Next, 50 μL/well biotinylated mxhIgG diluted 1:500 is added and allowed to incubate in the dark for 1 hour on shaker at RT. […]

The subject of experiment [5] is normal and tumor human tissue microarrays. The experiment can be described thus: GPNMB immunohistochemistry (IHC) analysis. Here is the method: Anti-GPNMB monoclonal antibodies were evaluated for reactivity with frozen and fixed tissue specimens. Tissue sections (5 μm) were cut from formalin fixed and paraffin embedded tissue samples and were rehydrated through incubations in xylene and a graded ethanol series terminating in PBS. Endogenous peroxidase activity was quenched in a 3% solution of hydrogen peroxide in methanol.
Tissue sections were blocked in blocking buffer (5% BSA (Sigma), 1% goat serum (Jackson Immunolabs, West Grove, Pa.) in PBS) for 1 hour. Primary and secondary antibodies were precomplexed in 5% BSA and 1% goat serum in PBS for 1 hour at 37° C. at a molar ratio of approximately 10:1 of anti-GPNMB or control IgG to secondary biotinylated goat anti-human IgG (Jackson Immunolabs). Complexes were blocked with a 1:2000 dilution of human serum and incubated again for 1 hour at 37° C. Tissue sections were incubated with anti-GPNMB antibody or isotype control antibody complexes diluted in blocking buffer for 1 hour. Sections were washed in 3 changes of PBS for 5 to 10 minutes each and incubated with a 1:200 dilution of streptavidin conjugated horseradish peroxidase (Jackson Immunolabs) in blocking buffer for 30 minutes and then washed as before. Antibody was detected using DAB reagent (Vector labs). […]

B1: Mab1.2.2: human anti-GPNMB antibody; VH SEQ ID NO: 38, VL SEQ ID NO: 47 (antibody, listed as Homo sapiens, V domains shown)
VH: ITLKESGPTLVKPTQTLTLTCTFSGFSLSAGGVGVGWIRQPPGKALEWLALIYWNDDKRYSPSLRSRLTITKDTSKNQVVLTITNMDPVDTATYYCAHSHYDYDWGSYFDYWGQGTLVTVSSA
VL: DIVMTQTPLSLPVTPGEPASISCRSSQSLLDSDDGNTYLDWYLQKPGQSPQLLIYTLSYRASGVPDRFSGSGSGTDFTLNISRVEAEDVGVYYCMQRIEFPITFGQGTRLEIKR
With B1, the “Avg OD” value in experiment [1] (12.3 ng/mL) was 0.049; in experiment [1] (37 ng/mL), 0.094; in experiment [1] (111 ng/mL) it was 0.199; in experiment [1] (333 ng/mL), 0.356; in experiment [1] (1 μg/mL), 0.499; in experiment [1] (3 μg/mL) it was 0.763. Also, the affinity in experiment [2], expressed as Kd, was 96 nM. Besides, the ka in experiment [2] turned out to be 9257 M⁻¹ s⁻¹. In addition, in experiment [2], the kd was 0.00089 s⁻¹. For the same molecule, the “Geo Mean Ratio of anti-GPNMB Staining (relative to pK16)” value in experiment [3] was 0.98.

B2: Mab1.7.1: human anti-GPNMB antibody; VH SEQ ID NO: 56, VL SEQ ID NO: 65 (antibody, listed as Homo sapiens, V domains shown)
VH: QVQLQESGPGLVKPSQTLSLTCTVSGGSISSANYYWTWIRQHPGKGLEWIGYIYYSGSTYCNPSLKSRVIISVDTSKNQFSLKLSSVTAADTAVYYCARGYNWNYFDYWGQGTLVTVSSA
VL: DIVMTQSPATLSVSPGERATLSCRASQSVSSNLAWYQERPGQAPRLLIYGASTRATGIPARFSGSGSGTEFTLTISSLQSEDFAVYYCQQYNKWPPWTFGQGTKVEIER
Turning to B2, in experiment [2], the Kd – broadly, the equilibrium constant for the complex coming apart – was determined as 122 nM; the ka amounted to 11842 M⁻¹ s⁻¹; the kd amounted to 0.00144 s⁻¹.

B3: Mab1.10.2: human anti-GPNMB antibody; VH SEQ ID NO: 2, VL SEQ ID NO: 11 (antibody, listed as Homo sapiens, V domains shown)
VH: QVQLQESGPGLVKPSETLSLTCTVSGDSISNYYWSWIRQPPGKGLEWIGYFYYSGSTNYNPSLKSRVTISVDTSKNQFSLKLSSVTAADTAVYYCARDRGWADYWGQGTLVTVSSA
VL: EIVLTQSPGTLSLSPGERATLSCRTSQSISSSYLAWYQQKPGQVPRLLIYGASSRATGIPDRFSGSGSGTDFTLTISRLEPEDFAVYYCQQYGSSITFGQGTRLEIKR
In experiment [2], B3 returned a dissociation constant Kd of 118 nM, a ka of 3955 M⁻¹ s⁻¹ and a kd of 0.000466 s⁻¹.

B4: Mab2.22.1: human anti-GPNMB antibody; VH SEQ ID NO: 164, VL SEQ ID NO: 173 (antibody, listed as Homo sapiens, V domains shown)
VH: QVQLEQSGPGLVKPSQNLSLTCTVSGGSISSGGYFWSWIRQHPGKGLEWIGYIYYSGNTYYNPSLKSRVTISVDTSKNQFSLKLSSVTAADTAVYYCARDYYYDTSGFSYRYDWYYGMDVWGQGTTVTVSSA
VL: DIQLTQSPSSLSASVGDRVTITCRASQGIRNDLGWYQQKPGKAPKRLIYAASSLQNGVPSRFSGSGSGTEFTLTISSLQPEDFATYYCLQHNTYPAFGQGTKVEIKR
With B4, the Bin entry in experiment [4] was “Bin 1”. The “staining of tissue specimens” value in experiment [5] was “Positive staining”. The “Geo Mean Ratio of anti-GPNMB Staining (relative to pK16)” value in experiment [3] is 1.10.
